Like-named read-outs stand apart in the source and are kept apart here.

One series concerns the target T1, MazF (Bacillus subtilis, UniProt P96622 1-116).
T1 sequence: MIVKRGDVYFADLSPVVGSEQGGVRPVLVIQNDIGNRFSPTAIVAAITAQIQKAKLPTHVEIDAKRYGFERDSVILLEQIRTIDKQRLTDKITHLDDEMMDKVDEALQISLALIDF
Kind of series: ITC.

Series [1] deals with the molecule itself. Kind of series: crystal structure.
Series [2] concerns the molecule itself. Briefly: crystal structure. The source holds these as a separate data set.

UUUACAUAA (ssRNA, 2'-deoxyuridine at position 3 (other residues ribo)) [uncleavable 9-mer RNA UUdUACAUAA] returned a Kd in the series with MazF of 64 nM.

B1: Bacillus subtilis MazF (toxin, mRNA interferase), expressed alone from pET-SUMO (enzyme)
chain: T1 sequence
As to B1, the “stoichiometry N” value in the series “crystal structure [1]” was found to be 2.

B2: Bacillus subtilis MazF coexpressed with MazE from modified pRSFDuet-1 (enzyme)
chain: T1 sequence
modifications: selenomethionine-labelled (for the crystals)
B2: in the series “crystal structure [2]”, the “stoichiometry N” value amounted to 2.

B3: Bacillus subtilis MazE (antitoxin) coexpressed with MazF from modified pRSFDuet-1 (natural protein)
chain: MSESSARTEMKISLPENLVAELDGVAMREKRSRNELISQAVRAYVSERTTRHNRDLMRRGYMEMAKINLNISSEAHFAECEAETTVERLVSGG
modifications: selenomethionine-labelled (for the crystals)
As for B3, the “stoichiometry N” value in “crystal structure [2]” was found to be 2.

The values are drawn from PMC4691852 (Molecular cell, 2013).
